These results are taken from patent US20140030218A1, “Treatment And Screening” (IMPERIAL INNOVATIONS LIMITED, published 2014).

Sequences and labels used below:
B5: human IRF5 tagged with one-strep tag (N-terminus) and HA tag (C-terminus) (other)
chain: MNQSIPVAPTPPRRVRLKPWLVAQVNSCQYPGLQWVNGEKKLFCIPWRHATRHGPSQDGDNTIFKAWAKETGKYTEGVDEADPAKWKANLRCALNKSRDFRLIYDGPRDMPPQPYKIYEVCSNGPAPTDSQPPEDYSFGAGEEEEEEEELQRMLPSLSLTEDVKWPPTLQPPTLQPPVVLGPPAPDPSPLAPPPGNPAGFRELLSEVLEPGPLPASLPPAGEQLLPDLLISPHMLPLTDLEIKFQYRGRPPRALTISNPHGCRLFYSQLEATQEQVELFGPISLEQVRFPSPEDIPSDKQRFYTNQLLDVLDRGLILQLQGQDLYAIRLCQCKVFWSGPCASAHDSCPNPIQREVKTKLFSLEHFLNELILFQKGQTNTPPPFEIFFCFGEEWPDRKPREKKLITVQVVPVAARLLLEMFSGELSWSADSIRLQISNPDLKDRMVEQFKELHHIWQSQQRLQPVAQAPPGAGLGVGQGPWPMHPAGMQ
notes: Expressed in HEK-293-TLR4-CD14/Md2 cells and purified on Strep-Tactin after formaldehyde cross-linking; also called onestrep-IRF5-HA; IRF5 with an N-terminal one-strep tag and a C-terminal HA tag; not shown: N-terminal one-strep tag; C-terminal HA tag

Data set [1] addresses T1, IRF5 DBD (aa 1-131) (Homo sapiens, UniProt Q13568 SEQ:1-131). Description: EMSA; 50 ng IRF5 DBD. The note with it: tags: expressed from pET21d in bacteria; label: 32P (dCTP fill-in); 5' agct overhangs. The procedure: (§1) (A) Recombinant purified IRF5-DBD was used in an EMSA with radioactive probe corresponding to the selected ISRE and κB sites. PRDI-III (IFN-˜ promoter) was used as a positive control.
(§2) Binding reactions with 50 ng of bacterially expressed and purified IRF5 DBD and EMSA gel separation were performed as previously described⁵.
On the technique in general: Mobility shift assays separate free from complexed probe on a gel.

In data set [2] the target is T1, IRF5 DBD (aa 1-131). The data set is described as follows: EMSA; non-consensus ISRE. The note with it: tags: expressed from pET21d in bacteria; label: 32P (dCTP fill-in); 5' agct overhangs. How it is done: as §1, §2
Data set [3] deals with T2, human RelA containing C-terminal FLAG tag (human, UniProt Q04206 1-551).
T2 construct: Expressed in HEK-293 cells; also called RelA-FLAG; Flag-tagged RelA; not shown: C-terminal FLAG tag
T2 sequence (Q04206 other isoform, or with tags, fused parts or gaps): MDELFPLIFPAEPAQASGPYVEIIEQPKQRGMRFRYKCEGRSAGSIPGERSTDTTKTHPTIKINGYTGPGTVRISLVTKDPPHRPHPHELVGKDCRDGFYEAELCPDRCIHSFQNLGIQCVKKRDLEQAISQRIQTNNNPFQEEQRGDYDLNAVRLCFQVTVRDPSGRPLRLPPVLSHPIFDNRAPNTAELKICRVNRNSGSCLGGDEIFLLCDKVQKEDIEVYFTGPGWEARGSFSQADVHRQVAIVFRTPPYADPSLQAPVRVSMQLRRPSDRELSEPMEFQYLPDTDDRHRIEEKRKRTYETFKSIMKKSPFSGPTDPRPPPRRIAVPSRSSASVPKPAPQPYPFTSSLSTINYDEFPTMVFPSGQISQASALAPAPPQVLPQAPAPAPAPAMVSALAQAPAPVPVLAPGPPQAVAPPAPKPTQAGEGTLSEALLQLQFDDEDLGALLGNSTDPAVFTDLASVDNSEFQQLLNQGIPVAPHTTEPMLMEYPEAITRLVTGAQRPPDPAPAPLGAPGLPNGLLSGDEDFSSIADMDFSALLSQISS
The data set is described as follows: One-Strep affinity purification from co-transfected HEK293-TLR4-CD14/Md2 cells, Western blot. (In western blotting, separated proteins are transferred to a membrane and probed.)

A further data set concerns the target T3, Rel-B (UniProt Q01201 1-579).
T3 construct: Endogenous protein in HEK-293 lysate, probed by immunoblot
T3 sequence (looked up): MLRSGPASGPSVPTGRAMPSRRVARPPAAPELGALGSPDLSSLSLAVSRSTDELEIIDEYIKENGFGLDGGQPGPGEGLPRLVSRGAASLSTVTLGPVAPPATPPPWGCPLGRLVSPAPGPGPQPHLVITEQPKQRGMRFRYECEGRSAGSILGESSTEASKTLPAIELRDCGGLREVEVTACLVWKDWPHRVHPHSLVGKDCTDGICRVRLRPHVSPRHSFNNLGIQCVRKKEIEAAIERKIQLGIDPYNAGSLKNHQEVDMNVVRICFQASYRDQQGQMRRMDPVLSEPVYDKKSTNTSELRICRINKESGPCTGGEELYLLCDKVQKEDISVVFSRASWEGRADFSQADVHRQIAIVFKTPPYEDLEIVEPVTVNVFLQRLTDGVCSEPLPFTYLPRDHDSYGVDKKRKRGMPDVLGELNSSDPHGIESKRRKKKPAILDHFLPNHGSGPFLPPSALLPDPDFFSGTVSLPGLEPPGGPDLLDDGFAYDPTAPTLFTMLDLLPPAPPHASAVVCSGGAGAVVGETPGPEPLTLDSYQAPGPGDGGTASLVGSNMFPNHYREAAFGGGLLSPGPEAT
The data set is described as follows: Strep-Tactin pull-down of one-strep-IRF5-HA from formaldehyde-cross-linked HEK-293 cells, immunoblot. How it is done:
(§3) HEK-293-TLR4-CD14/Md2 cells were transfected with onestrep-IRF5-HA construct or corresponding empty vector. 24 hrs post transfection cells were fixed with 1% formaldehyde for 10 minutes at room temperature prior to high salt lysis and affinity purification on Strep-Tactin MacroPrep sepharose (IBA). The eluates were de-crosslinked by incubating at 65° C. overnight prior to separation by SDS-PAGE. Exogenous IRF5 and endogenous RelA were detected by immunoblotting with anti-HA-HRP (12013819001, Roche) and anti-RelA (sc-372, Santa-Cruz, US). Alternatively, cells were transfected with RelA-FLAG or BAP-FLAG control protein. 24 hrs post transfection cells were lysed and affinity purified with anti-FLAG M2 sepharose beads (Sigma, UK). Exogenous RelA and endogenous IRF5 were detected by immunoblotting with anti-FLAG-HRP (A8592, Sigma, UK) and anti-IRF5 (Abcam, UK). Interaction of endogenous RelA and IRF5 was detected by overnight incubation of the cell lysates with goat anti-IRF5 antibody (ab2932, Abcam, UK) or no antibody control prior to precipitation with protein G beads. IRF5 was detected by immunoblotting with mouse anti-IRF5 antibody (sc-56714, Santa-Cruz, USA) while RelA—by immunoblotting with anti-RelA. Triton X-100 extracted nuclei and DNase I digestion of chromatin was performed as described previously¹⁷.
(§4) IRF5 with an N-terminal one-strep tag and a C-terminal HA tag was expressed in HEK-293 cells. […] To determine whether this interaction was specific, we immunoblotted for other NE-κB family members: Rel-B, c-Rel, p50 and p52, or a control protein tubulin. […] Furthermore we conducted a complementary experiment, in which human RelA containing C-terminal FLAG tag was expressed in HEK-293 cells and immunoprecipitated in the absence of a cross-linking agents on anti-FLAG sepharose. Specific interactions between ectopically expressed RelA and endogenous IRF5 were observed. No interaction was detected between a control FLAG-tagged bacterial alkaline phosphatase (BAP) and IRF5 (FIG. 24B, compare lanes 1 and 2).

The next data set has as its target T4, c-Rel (UniProt Q04864 2-619, limits assumed).
T4 construct: Endogenous protein in HEK-293 lysate, probed by immunoblot
T4 sequence (looked up): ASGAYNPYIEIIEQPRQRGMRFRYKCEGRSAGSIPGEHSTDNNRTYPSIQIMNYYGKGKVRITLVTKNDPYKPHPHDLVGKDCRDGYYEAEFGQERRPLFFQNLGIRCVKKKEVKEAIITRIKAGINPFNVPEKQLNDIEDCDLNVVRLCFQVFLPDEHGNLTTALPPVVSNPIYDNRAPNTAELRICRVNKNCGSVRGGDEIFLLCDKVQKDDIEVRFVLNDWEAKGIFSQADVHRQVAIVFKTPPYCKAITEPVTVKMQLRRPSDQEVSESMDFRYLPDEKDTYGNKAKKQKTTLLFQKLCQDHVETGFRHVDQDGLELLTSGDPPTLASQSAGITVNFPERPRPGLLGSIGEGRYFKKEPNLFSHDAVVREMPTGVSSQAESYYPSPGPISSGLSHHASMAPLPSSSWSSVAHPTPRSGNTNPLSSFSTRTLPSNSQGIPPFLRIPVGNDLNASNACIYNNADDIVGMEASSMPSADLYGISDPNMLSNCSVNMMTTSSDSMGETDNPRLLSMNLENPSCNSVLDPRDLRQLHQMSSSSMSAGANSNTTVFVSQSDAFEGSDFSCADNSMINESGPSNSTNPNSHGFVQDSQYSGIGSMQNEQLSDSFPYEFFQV
The data set is described as above. How it is done: as §3, §4

The target of data set [4] is B5. Described as above. The procedure: as §3, §4
For data set [5], the target named is T1, IRF5 DBD (aa 1-131). Description: EMSA; 50 ng IRF5 DBD; ISRE 1/2 said to interact in vitro. The conditions noted are these: tags: expressed from pET21d in bacteria; label: 32P (dCTP fill-in); 5' agct overhangs. How it is done:
as §1, §2

B1: TNF kB4b (dsDNA)
DNA 1: AGCTCTTGCTGGGAAAATCCTGCAG
DNA 2: AGCTGCTGCAGGATTTTCCCAGCAAG
For B1, the binding result with IRF5 DBD (aa 1-131) [1] was “no binding”.

B2: TNF 'ISRE'16 (dsDNA)
DNA 1: AGCTTTTGCTTAGAAAAGAAACATGGTCTC
DNA 2: AGCTGAGACCATGTTTCTTTTCTAAGCAAA
Turning to B2, the binding result in the data set with IRF5 DBD (aa 1-131) [2] is recorded as “no binding”.

B3: TNF 'ISRE'17 (dsDNA)
DNA 1: AGCTACATAAACAAAGCCCAACAGAATATTCC
DNA 2: AGCTGGAATATTCTGTTGGGCTTTGTTTATGT
For the molecule B3, the binding result with IRF5 DBD (aa 1-131) [2] is “no binding”.

B4: One-Strep-IRF5 fusion protein (other)
chain: MNQSIPVAPTPPRRVRLKPWLVAQVNSCQYPGLQWVNGEKKLFCIPWRHATRHGPSQDGDNTIFKAWAKETGKYTEGVDEADPAKWKANLRCALNKSRDFRLIYDGPRDMPPQPYKIYEVCSNGPAPTDSQPPEDYSFGAGEEEEEEEELQRMLPSLSLTEDVKWPPTLQPPTLQPPVVLGPPAPDPSPLAPPPGNPAGFRELLSEVLEPGPLPASLPPAGEQLLPDLLISPHMLPLTDLEIKFQYRGRPPRALTISNPHGCRLFYSQLEATQEQVELFGPISLEQVRFPSPEDIPSDKQRFYTNQLLDVLDRGLILQLQGQDLYAIRLCQCKVFWSGPCASAHDSCPNPIQREVKTKLFSLEHFLNELILFQKGQTNTPPPFEIFFCFGEEWPDRKPREKKLITVQVVPVAARLLLEMFSGELSWSADSIRLQISNPDLKDRMVEQFKELHHIWQSQQRLQPVAQAPPGAGLGVGQGPWPMHPAGMQ
notes: also called full-length IRF5 (One-Strep bait); not shown: One-Strep tag
Regarding B4, the binding result in data set [3] is given as “binds”. Regarding B5, the binding result in the data set with Rel-B and with c-Rel was “no binding” throughout.

B6: p50 (other, UniProt P19838 1-433, looked up)
chain: MAEDDPYLGRPEQMFHLDPSLTHTIFNPEVFQPQMALPTDGPYLQILEQPKQRGFRFRYVCEGPSHGGLPGASSEKNKKSYPQVKICNYVGPAKVIVQLVTNGKNIHLHAHSLVGKHCEDGICTVTAGPKDMVVGFANLGILHVTKKKVFETLEARMTEACIRGYNPGLLVHPDLAYLQAEGGGDRQLGDREKELIRQAALQQTKEMDLSVVRLMFTAFLPDSTGSFTRRLEPVVSDAIYDSKAPNASNLKIVRMDRTAGCVTGGEEIYLLCDKVQKDDIQIRFYEEEENGGVWEGFGDFSPTDVHRQFAIVFKTPKYKDINITKPASVFVQLRRKSDLETSEPKPFLYYPEIKDKEEVQRKRQKLMPNFSDSFGGGSGAGAGGGGMFGSGGGGGGTGSTGPGYSFPHYGFPTYGGITFHPGTTKSNAGMKHG
notes: Endogenous protein in HEK-293 lysate, probed by immunoblot; also called NF-kB p50
Regarding B6, in data set [4], the binding result was “no binding”.

B7: p52 (other, UniProt Q00653 1-454, looked up)
chain: MESCYNPGLDGIIEYDDFKLNSSIVEPKEPAPETADGPYLVIVEQPKQRGFRFRYGCEGPSHGGLPGASSEKGRKTYPTVKICNYEGPAKIEVDLVTHSDPPRAHAHSLVGKQCSELGICAVSVGPKDMTAQFNNLGVLHVTKKNMMGTMIQKLQRQRLRSRPQGLTEAEQRELEQEAKELKKVMDLSIVRLRFSAFLRASDGSFSLPLKPVISQPIHDSKSPGASNLKISRMDKTAGSVRGGDEVYLLCDKVQKDDIEVRFYEDDENGWQAFGDFSPTDVHKQYAIVFRTPPYHKMKIERPVTVFLQLKRKRGGDVSDSKQFTYYPLVEDKEEVQRKRRKALPTFSQPFGGGSHMGGGSGGAAGGYGGAGGGGSLGFFPSSLAYSPYQSGAGPMGCYPGGGGGAQMAATVPSRDSGEEAAEPSAPSRTPQCEPQAPEMLQRAREYNARLFGLA
notes: Endogenous protein in HEK-293 lysate, probed by immunoblot; also called NF-kB p52
Regarding B7, the binding result in data set [4] is reported as “no binding”.

B8: TNF kB4a (dsDNA)
DNA 1: AGCTAACTCTGGGAATTCCAATCCTT
DNA 2: AGCTAAGGATTGGAATTCCCAGAGTT
Turning to B8, in the data set with IRF5 DBD (aa 1-131) [1], the binding result is recorded as “no binding”.

B9: TNF ISRE1 (dsDNA)
DNA 1: AGCTGAAGCCAAGACTGAAACCAGCATTA
DNA 2: AGCTTAATGCTGGTTTCAGTCTTGGCTTC
As for B9, the binding result with IRF5 DBD (aa 1-131) [5] was “binds”.
